From patent US20150216779A1, “COMPOSITIONS FOR TARGETED ANTI-AGING THERAPY” (THE TEXAS A&M UNIVERSITY SYSTEM, priority 2012, published 2015)

How the values were obtained:
[1] = Turbidity after heating at 90° C. for 30 seconds (plate heat exchanger); format: physicochemical; settings: 1 mg/ml lactoferrin in 10 mM potassium acetate, pH 6.3; heated at 90° C. for 30 seconds
Method: Formulations containing heat-stabilized lactoferrin (1 mg/ml) without added branched-chain amino acids (Formulation 1) and heat-stabilized lactoferrin (1 mg/ml) with added branched-chain amino acids (2 mg/ml) (Formulation 2) were dissolved in the buffered solution (10 mM potassium acetate, pH 6.3) to make 4 liters solution. The two liquid formulations were heated by using a plate heat exchanger at 90° C. for 30 seconds, and cooled to 5° C., after which they were stored in sterilized bottles, and bubbled with carbon dioxide (CO2) in an aseptic room. The two resultant liquid formulations with a zinc ion concentration of 2.4 mg per 100 ml had excellent taste and appearance. […] Lactoferrin aggregation occurred at pH 6.3, which corresponded to its high thermal instability.

[2] = heat-treated at 63 and 85° C.; cited from earlier work

B1: lactoferrin: iron-binding glycoprotein of the transferrin family present in milk; unstabilized buffered solution at 1 mg/ml (protein, UniProt P24627 20-708, looked up)
Lactotransferrin: APRKNVRWCTISQPEWFKCRRWQWRMKKLGAPSITCVRRAFALECIRAIAEKKADAVTLDGGMVFEAGRDPYKLRPVAAEIYGTKESPQTHYYAVAVVKKGSNFQLDQLQGRKSCHTGLGRSAGWIIPMGILRPYLSWTESLEPLQGAVAKFFSASCVPCIDRQAYPNLCQLCKGEGENQCACSSREPYFGYSGAFKCLQDGAGDVAFVKETTVFENLPEKADRDQYELLCLNNSRAPVDAFKECHLAQVPSHAVVARSVDGKEDLIWKLLSKAQEKFGKNKSRSFQLFGSPPGQRDLLFKDSALGFLRIPSKVDSALYLGSRYLTTLKNLRETAEEVKARYTRVVWCAVGPEEQKKCQQWSQQSGQNVTCATASTTDDCIVLVLKGEADALNLDGGYIYTAGKCGLVPVLAENRKSSKHSSLDCVLRPTEGYLAVAVVKKANEGLTWNSLKDKKSCHTAVDRTAGWNIPMGLIVNQTGSCAFDEFFSQSCAPGADPKSRLCALCAGDDQGLDKCVPNSKEKYYGYTGAFRCLAEDVGDVAFVKNDTVWENTNGESTADWAKNLNREDFRLLCLDGTRKPVTEAQSCHLAVAPNHAVVSRSDRAAHVKQVLLHQQALFGKNGKNCPDKFCLFKSETKNLLFNDNTECLAKLGGRPTYEEYLGTEYVTAIANLKKCSTSPLLEACAFLTR
- appearance of solution after heating (turbidity / transparency) [1]: turbid
- immunological properties after heat treatment [2]: loses its immunological properties
